Measurements from paper PMC9482650, “Quantitative fragmentomics allow affinity mapping of interactomes” (Nature Communications, 2022).

T1: CNKSR1, Q969H4
T1 sequence (Q969H4 191-295, limits assumed, looked up): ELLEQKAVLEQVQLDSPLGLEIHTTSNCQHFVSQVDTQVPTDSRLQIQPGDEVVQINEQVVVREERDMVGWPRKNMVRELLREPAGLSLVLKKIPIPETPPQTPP

T2: INTU, Q9ULD6
T2 sequence (Q9ULD6 180-273, limits assumed, looked up): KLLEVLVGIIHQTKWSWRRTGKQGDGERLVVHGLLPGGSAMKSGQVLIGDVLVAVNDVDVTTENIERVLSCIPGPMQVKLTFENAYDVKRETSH

T3: RGS12, O14924
T3 sequence (O14924 17-108, limits assumed, looked up): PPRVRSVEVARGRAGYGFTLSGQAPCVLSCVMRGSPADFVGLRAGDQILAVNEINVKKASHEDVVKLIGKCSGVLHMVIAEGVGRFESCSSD

B1: DGKK, Q5KSL6 (peptide)
chain: DPLTPSRSQL
B2: DGKZ, Q13574 (peptide)
chain: IQREDQETAV

Target: Q6ZWJ1
Experiment: holdup assay
Set-up: key: below the threshold = too weak to quantify, mostly under pKd 3.1 to 4
Conditions: plain residues with an end cap or a label only (N-terminal biotin on a linker: ttds)

pKd	Binder
below the threshold	B1
below the threshold	B2

Target: Q9H190
Experiment: holdup assay
Set-up: key: below the threshold = too weak to quantify, mostly under pKd 3.1 to 4
Conditions: plain residues with an end cap or a label only (N-terminal biotin on a linker: ttds)

pKd	Binder
below the threshold	B1
below the threshold	B2

Target: O00233
Experiment: holdup assay
Set-up: key: below the threshold = too weak to quantify, mostly under pKd 3.1 to 4
Conditions: plain residues with an end cap or a label only (N-terminal biotin on a linker: ttds)

pKd	Binder
below the threshold	B1
below the threshold	B2

Target: Q12923
Experiment: holdup assay
Set-up: key: below the threshold = too weak to quantify, mostly under pKd 3.1 to 4
Conditions: plain residues with an end cap or a label only (N-terminal biotin on a linker: ttds)

pKd	Binder
below the threshold	B1
below the threshold	B2

Target: Q92614
Experiment: holdup assay
Set-up: key: below the threshold = too weak to quantify, mostly under pKd 3.1 to 4
Conditions: plain residues with an end cap or a label only (N-terminal biotin on a linker: ttds)

pKd	Binder
below the threshold	B1
below the threshold	B2

Target: Q8TDM6
Experiment: holdup assay
Set-up: key: below the threshold = too weak to quantify, mostly under pKd 3.1 to 4
Conditions: plain residues with an end cap or a label only (N-terminal biotin on a linker: ttds)

pKd	Binder
below the threshold	B1
below the threshold	B2

Target: O60759
Experiment: holdup assay
Set-up: key: below the threshold = too weak to quantify, mostly under pKd 3.1 to 4
Conditions: plain residues with an end cap or a label only (N-terminal biotin on a linker: ttds)

pKd	Binder
below the threshold	B1
below the threshold	B2

Target: Q9UDY2
Experiment: holdup assay
Set-up: key: below the threshold = too weak to quantify, mostly under pKd 3.1 to 4
Conditions: plain residues with an end cap or a label only (N-terminal biotin on a linker: ttds)

pKd	Binder
below the threshold	B1
below the threshold	B2

Target: Q8TEW0
Experiment: holdup assay
Set-up: key: below the threshold = too weak to quantify, mostly under pKd 3.1 to 4
Conditions: plain residues with an end cap or a label only (N-terminal biotin on a linker: ttds)

pKd	Binder
below the threshold	B1
below the threshold	B2

Target: T1, CNKSR1, Q969H4
Experiment: holdup assay
Set-up: key: below the threshold = too weak to quantify, mostly under pKd 3.1 to 4
Conditions: plain residues with an end cap or a label only (N-terminal biotin on a linker: ttds)

pKd	Binder
4.3	B1
below the threshold	B2

Target: Q70Z35
Experiment: holdup assay
Set-up: key: below the threshold = too weak to quantify, mostly under pKd 3.1 to 4
Conditions: plain residues with an end cap or a label only (N-terminal biotin on a linker: ttds)

pKd	Binder
below the threshold	B1
below the threshold	B2

Target: Q9NR12
Experiment: holdup assay
Set-up: key: below the threshold = too weak to quantify, mostly under pKd 3.1 to 4
Conditions: plain residues with an end cap or a label only (N-terminal biotin on a linker: ttds)

pKd	Binder
below the threshold	B1
below the threshold	B2

Target: Q96JY6
Experiment: holdup assay
Set-up: key: below the threshold = too weak to quantify, mostly under pKd 3.1 to 4
Conditions: plain residues with an end cap or a label only (N-terminal biotin on a linker: ttds)

pKd	Binder
below the threshold	B1
below the threshold	B2

Target: Q96JB8
Experiment: holdup assay
Set-up: key: below the threshold = too weak to quantify, mostly under pKd 3.1 to 4
Conditions: plain residues with an end cap or a label only (N-terminal biotin on a linker: ttds)

pKd	Binder
below the threshold	B1
below the threshold	B2

Target: Q8TB45
Experiment: holdup assay
Set-up: key: below the threshold = too weak to quantify, mostly under pKd 3.1 to 4
Conditions: plain residues with an end cap or a label only (N-terminal biotin on a linker: ttds)

pKd	Binder
below the threshold	B1
below the threshold	B2

Target: Q9NPB6
Experiment: holdup assay
Set-up: key: below the threshold = too weak to quantify, mostly under pKd 3.1 to 4
Conditions: plain residues with an end cap or a label only (N-terminal biotin on a linker: ttds)

pKd	Binder
below the threshold	B1
below the threshold	B2

Target: O75970
Experiment: holdup assay
Set-up: key: below the threshold = too weak to quantify, mostly under pKd 3.1 to 4
Conditions: plain residues with an end cap or a label only (N-terminal biotin on a linker: ttds)

pKd	Binder
below the threshold	B1
below the threshold	B2

Target: T2, INTU, Q9ULD6
Experiment: holdup assay
Set-up: key: below the threshold = too weak to quantify, mostly under pKd 3.1 to 4
Conditions: plain residues with an end cap or a label only (N-terminal biotin on a linker: ttds)

pKd	Binder
below the threshold	B1

Target: O00560
Experiment: holdup assay
Set-up: key: below the threshold = too weak to quantify, mostly under pKd 3.1 to 4
Conditions: plain residues with an end cap or a label only (N-terminal biotin on a linker: ttds)

pKd	Binder
below the threshold	B1
below the threshold	B2

Target: Q9P227
Experiment: holdup assay
Set-up: key: below the threshold = too weak to quantify, mostly under pKd 3.1 to 4
Conditions: plain residues with an end cap or a label only (N-terminal biotin on a linker: ttds)

pKd	Binder
below the threshold	B1
below the threshold	B2

Target: Q13368
Experiment: holdup assay
Set-up: key: below the threshold = too weak to quantify, mostly under pKd 3.1 to 4
Conditions: plain residues with an end cap or a label only (N-terminal biotin on a linker: ttds)

pKd	Binder
below the threshold	B1
below the threshold	B2

Target: Q9ULJ8
Experiment: holdup assay
Set-up: key: below the threshold = too weak to quantify, mostly under pKd 3.1 to 4
Conditions: plain residues with an end cap or a label only (N-terminal biotin on a linker: ttds)

pKd	Binder
below the threshold	B1
below the threshold	B2

Target: Q96FS4
Experiment: holdup assay
Set-up: key: below the threshold = too weak to quantify, mostly under pKd 3.1 to 4
Conditions: plain residues with an end cap or a label only (N-terminal biotin on a linker: ttds)

pKd	Binder
below the threshold	B1
below the threshold	B2

Target: T3, RGS12, O14924
Experiment: holdup assay
Set-up: key: below the threshold = too weak to quantify, mostly under pKd 3.1 to 4
Conditions: plain residues with an end cap or a label only (N-terminal biotin on a linker: ttds)

pKd	Binder
below the threshold	B1
below the threshold	B2

Target: Q96SB3
Experiment: holdup assay
Set-up: key: below the threshold = too weak to quantify, mostly under pKd 3.1 to 4
Conditions: plain residues with an end cap or a label only (N-terminal biotin on a linker: ttds)

pKd	Binder
below the threshold	B1
below the threshold	B2

Target: GIPC3, Q8TF64
Experiment: holdup assay
Set-up: key: below the threshold = too weak to quantify, mostly under pKd 3.1 to 4
Conditions: plain residues with an end cap or a label only (N-terminal biotin on a linker: ttds)

Sequence of GIPC3, Q8TF64 (Q8TF64 107-202): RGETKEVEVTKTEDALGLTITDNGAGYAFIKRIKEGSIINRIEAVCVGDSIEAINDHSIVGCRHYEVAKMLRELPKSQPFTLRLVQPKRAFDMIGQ

pKd	Binder
below the threshold	B1
below the threshold	B2

Target: Q9C0E4
Experiment: holdup assay
Set-up: key: below the threshold = too weak to quantify, mostly under pKd 3.1 to 4
Conditions: plain residues with an end cap or a label only (N-terminal biotin on a linker: ttds)

pKd	Binder
below the threshold	B1
below the threshold	B2

Target: Q9Y3R0
Experiment: holdup assay
Set-up: key: below the threshold = too weak to quantify, mostly under pKd 3.1 to 4
Conditions: plain residues with an end cap or a label only (N-terminal biotin on a linker: ttds)

pKd	Binder
below the threshold	B1
below the threshold	B2
